Drawing on article PMC3025569, this text covers stoichiometry N for one substance.

This assay addresses ThaI restriction endonuclease (Thermoplasma acidophilum strain ATCC 25905). Nature of the assay: SEC. On the technique in general: In gel filtration, larger molecules generally elute earlier.

One may read the stoichiometry N as the number of molecules, sites or subunits per partner or assembly. ThaI restriction endonuclease (enzyme) yielded a stoichiometry N of 2.
